This test concerns the target human recombinant galectin-9, medium isoform (gal-9M) (human) (UniProt O00182). The experiment in a line: SPR; Biacore T200; gal-9M covalently bound to a CM5 chip (NHS/EDC, 10 μg/mL, pH 5, acetate buffer); Gal-Nab1 and Gal-Nab2 as analytes, 1.5 to 400 nM, 40 μL/min, 400 s, albumin 0.1 mg/mL and tween 0.05%; dissociation 500 s; the paper says the KD reflects avidity rather than affinity (apparent).

human recombinant galectin-9, medium isoform (gal-9M) (human), sequence (O00182 other isoform, or with tags, fused parts or gaps): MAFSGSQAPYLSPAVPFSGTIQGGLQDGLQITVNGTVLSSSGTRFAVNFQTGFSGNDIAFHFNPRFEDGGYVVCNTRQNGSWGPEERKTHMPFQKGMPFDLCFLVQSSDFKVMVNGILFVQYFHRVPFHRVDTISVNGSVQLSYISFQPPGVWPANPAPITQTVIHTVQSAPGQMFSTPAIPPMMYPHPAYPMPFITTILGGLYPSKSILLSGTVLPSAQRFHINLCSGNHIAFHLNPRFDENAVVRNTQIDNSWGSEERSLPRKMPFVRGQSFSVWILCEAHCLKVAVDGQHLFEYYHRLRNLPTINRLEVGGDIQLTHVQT

B1: Gal-Nab1 (antibody, V domains shown)
VH: KVQLQQSGAELVKPGASVKLSCKASGYTFTDYTIHWVKQRSGQGLEWIGWFYPGSHSIKYNEQFKDRATLTADKSSSTVYMELSRLTSEDSAVYFCTRHGGYDGFDYWGQGTTLTVSS
VL: DIVMSQSPSSLAVSVGEKITMSCKSSQSLFYSTNQKNYLAWYQQKPGQSPKLLIYWASTRESGVPDRFTGSGSGTDFTLTISSVKAEDLAVYYCQQYYYFPYTFGGGTKLEIK
For the molecule B1, the Kd was 4.34 nM, the koff stood at 0.000115 s⁻¹, the kon stood at 26500 M⁻¹ s⁻¹ and the t1/2 was 2.07 h.
